Assays:
[1] = tested on: hT40, dGA, dGAE and truncated tau fragments; test: Binding ELISA / epitope mapping of anti-tau scAbs with truncated tau proteins and 13mer peptides; parameters: species or system human; conditions: for Tau proteins/fragments with positive scAb reactivity: binding ELISA; for Shortest region bound on hT40: incl. 13mer peptides
In short: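 Serially double-diluted scAbs were applied to 2% MPBS-blocked wells carrying either 1 μg/ml full-length or truncated tau, or biotinylated 13mer peptides (1 μg/ml) captured on 5 μg/ml streptavidin. Absorbance after HRP anti-human C kappa secondary gave the binding signal.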

[2] = biological target: dGAE aggregates (Homo sapiens, UniProt P10636); test: Epitope occlusion assay: dGAE aggregation with/without LMTM, 423 mAb capture ELISA; assay type: biochemical; conditions: total and supernatant samples; 423 mAb capture
Description: During dGAE aggregation in vitro, scAb binding regions on dGA/dGAE are ‘hidden’ or ‘occluded’ which leads to a loss of immunoreactivity in aggregation samples. Here we have shown the occlusion of binding regions in aggregated dGAE samples and the recovery of immunoreactivity in the presence of LMTM, a tau-aggregation inhibitor. For preparing the aggregates, 10 μl 10 mM DTT was added to 1000 μl 100 μM dGAE and agitated with/without LMTM (1:5 ratio) at 700 rpm for 24 h at 37° C. Following overnight agitation, one third of each sample was kept aside as ‘total’ and the rest was spun down at 16000×g for 30 min and separated into ‘supernatant’ and ‘pellet’. The pellet was then resuspended in half the original volume for further experiments. […] Doubling dilutions of dGAE aggregate ‘total’, ‘supernatant’ and ‘pellet’ samples at 10 μg/ml starting concentration were added to designated wells in doubling dilutions in 1×PBS. dGAE monomer (non-aggregated) was included as assay control. All double dilutions were done in final volumes of 100 μl. This was left to incubate on lab bench for 1 h followed by the addition of test scAbs at 10 μg/ml. Anti-HuCk HRP labelled secondary antibody was added as described previously and ELISA data generated is represented using the graph below.

[3] = biological target: T1, htau40 (Homo sapiens, UniProt P10636); test: Biacore X100 SPR kinetics of anti-tau mAbs on immobilised htau40; assay type: binding; conditions: Table 27; mAb format, immobilised htau40
T1 construct: Full length tau (hT40)
Description: For anti-tau mAb SPR measurements, htau40 was conjugated to the surface of a CM5 sensor chip using amine coupling as explained previously. Briefly, 2 μg/mL htau40 in 10 mM Sodium acetate buffer (pH 4.0) was passed over the activated chip surface (EDC/NHS) in flow cell 2 for a period for 45 s followed by blocking with 1 M ethanolamine-HCl PH 8.5. Flow cell 1 was set up as reference control and blocked simultaneously. Final immobilisation level of htau40 (Rmax) was approximately 250 RU. Following a minimum of three start-up cycles, increasing concentrations (0.78 nM-25 nM) of the mAb in HBS-EP+ buffer was added at a rate of […] to the chip. The mAb was added for a 120 s association period and 600 s dissociation period followed by a regeneration cycle of 30 s injection of glycine buffer pH 1.5 in between each cycle. Binding responses were analysed in Biacore X100 evaluation software and data fitted to a 1:1 binding model to obtain kinetic and affinity characterisation.
For anti-tau mAb SPR measurements (Biacore X100™) and epitope mapping, the same methodologies described above (see Example 16) were followed. Kinetic rates and equilibrium binding constants of additional anti-tau mAbs and the regions recognised on hT40 are given in the Table 25 below

[4] = biological target: T2, hT40 (T441, SEQ ID NO: 1) (Homo sapiens, UniProt P10636); test: Biacore X100 SPR kinetics of scAbs for hT40; assay type: binding; conditions: Table 23; scAb captured, T441 (hT40) analyte; 1:1 model
T2 construct: Full length tau (hT40)
Description: Surface plasmon resonance (SPR) is widely regarded as the gold standard for real time measurement of protein-protein interactions such as antibody binding. All SPR experiments were carried out using a Biacore X100 machine and HBS EP+ running buffer (GE Healthcare). A ‘capture’ method was followed for affinity measurements, where an anti-human constant kappa chain (HuCk) antibody was conjugated to the surface of a CM5 sensor chip using an amine coupling kit and scAb molecules were immobilised via their HuCk domain. Amine coupling is a very common approach for immobilising the ligand to the chip surface. […] The capture antibody was diluted 1/100 in 10 mM Sodium acetate buffer pH 5.0 and passed over the activated chip surface for a period of at least 420 s. Final ligand immobilisation levels over 12,000 RU were deemed to be satisfactory.
(§1) Following immobilisation, the level of each scAb to be captured was identified using the standard SPR equation with a theoretical RMax of 100 RU. Analyte MW refers to the molecular weight of hT40 or dGA/dGAE molecules, while ligand MW refers to the molecular weight of the scAbs tested. RL is the desired capture level and S refers to the stoichiometric ratio:
The scAb to be tested was added only to flow cell 2 so that flow cell 1 could act as a control to subtract any interaction with the analyte and the chip surface. Both single and multi-cycle runs were utilised using wizards developed in the Biacore X100 control software which are both accepted methods of kinetic analysis (Karlsson, R., et al. Analyzing a kinetic titration series using affinity biosensors (2006) Analytical Biochemistry 349:136-47). The multi-cycle protocol was as follows-Three start-up cycles composed of an initial capture, to the desired level, of the scAb to be tested was performed followed by a 30 s injection of glycine buffer pH 2.0 after each cycle to regenerate the chip surface. […] Following three start-up cycles increasing concentrations (0.15625 nM-100 nM) of the target to be tested were added to the chip surface after the desired scAb capture. The target was added for a 120 s association period and 420 s dissociation period followed by another regeneration, 30 s injection of glycine buffer pH 2.0 in between each cycle.
(§2) The single cycle kinetics protocol was similar and utilised the same level of scAb capture. Three start-up cycles were used followed by 5 increasing concentrations of the analyte (6.25 nM-100 nM) for an association period of 120 s followed by a dissociation period of 420 s for each concentration. In single cycle kinetics the regeneration step was performed only after the final analyte concentration was added. Binding responses were analysed in Biacore X100 evaluation software and data fitted to a 1:1 binding model to obtain kinetic and affinity characterisation.

[5] = biological target: dGA (SEQ ID NO: 5) (Homo sapiens, UniProt P10636); test: Biacore X100 SPR kinetics of scAbs for dGA; assay type: binding; conditions: Table 24, scAb, dGA analyte
Description: Surface plasmon resonance (SPR) is widely regarded as the gold standard for real time measurement of protein-protein interactions such as antibody binding. All SPR experiments were carried out using a Biacore X100 machine and HBS EP+ running buffer (GE Healthcare). A ‘capture’ method was followed for affinity measurements, where an anti-human constant kappa chain (HuCk) antibody was conjugated to the surface of a CM5 sensor chip using an amine coupling kit and scAb molecules were immobilised via their HuCk domain. Amine coupling is a very common approach for immobilising the ligand to the chip surface. The chip surface has a dextran matrix derivatised with carboxyl groups, which after activation with N-hydroxysuccinimide (NHS) and 1-ethyl-3-(3-dimethylaminopropyl) carbodiimide (EDC), form reactive succinimide esters which allows the covalent capturing of the ligand via any available primary amine groups (e.g. Lysine) on the ligand (in this case anti-HuCk antibody). The capture antibody was diluted 1/100 in 10 mM Sodium acetate buffer pH 5.0 and passed over the activated chip surface for a period of at least 420 s. Final ligand immobilisation levels over 12,000 RU were deemed to be satisfactory.
as §1
The scAb to be tested was added only to flow cell 2 so that flow cell 1 could act as a control to subtract any interaction with the analyte and the chip surface. Both single and multi-cycle runs were utilised using wizards developed in the Biacore X100 control software which are both accepted methods of kinetic analysis (Karlsson, R., et al. Analyzing a kinetic titration series using affinity biosensors (2006) Analytical Biochemistry 349:136-47). The multi-cycle protocol was as follows-Three start-up cycles composed of an initial capture, to the desired level, of the scAb to be tested was performed followed by a 30 s injection of glycine buffer pH 2.0 after each cycle to regenerate the chip surface. The regeneration step removed any captured scAb whilst leaving the capture antibody intact and able to repeat the capture for the next cycle. Following three start-up cycles increasing concentrations (0.15625 nM-100 nM) of the target to be tested were added to the chip surface after the desired scAb capture. The target was added for a 120 s association period and 420 s dissociation period followed by another regeneration, 30 s injection of glycine buffer pH 2.0 in between each cycle.
as §2

[6] = tested on: 13 aa tau peptides of hT40; test: Alanine scanning mutagenesis (ASM) peptide ELISA; assay type: binding, human; conditions: alanine substituted peptides; numbering SEQ ID NO: 1
Description: Briefly, 5 μg/ml streptavidin (Thermo Fisher) was adsorbed to Nunc 96-well MaxiSorp plates and following incubation at 37° C. for 1 h, the plates were washed as normal and blocked with 2% MPBS. N-terminally biotinylated peptides (Prolmmune Ltd) were added to the plates and incubated for 1 h at 37° C. Subsequently, test scAbs at starting concentrations of 100-500 nM was added and double diluted across the plate for each peptide and incubated for 1 h at 37° C. Rest of the ELISA was conducted as described above and the plates were read at absorbance 450 nm. Immunoreactivity of the scAb of interest was quantified as the % of scAb was bound for each peptide at a chosen concentration (FIG. 15-20).

[7] = residue numbers of SEQ ID NO: 1 (hT40), CDR Tables 1-11
[8] = Table 26 summary, top scAbs, residues of hT40

Sequence of dGAE aggregates (P10636 614-708): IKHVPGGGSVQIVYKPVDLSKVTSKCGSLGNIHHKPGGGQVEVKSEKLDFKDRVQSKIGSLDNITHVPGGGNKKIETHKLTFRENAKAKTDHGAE
T2 sequence (P10636 1-441 isoform P10636-8): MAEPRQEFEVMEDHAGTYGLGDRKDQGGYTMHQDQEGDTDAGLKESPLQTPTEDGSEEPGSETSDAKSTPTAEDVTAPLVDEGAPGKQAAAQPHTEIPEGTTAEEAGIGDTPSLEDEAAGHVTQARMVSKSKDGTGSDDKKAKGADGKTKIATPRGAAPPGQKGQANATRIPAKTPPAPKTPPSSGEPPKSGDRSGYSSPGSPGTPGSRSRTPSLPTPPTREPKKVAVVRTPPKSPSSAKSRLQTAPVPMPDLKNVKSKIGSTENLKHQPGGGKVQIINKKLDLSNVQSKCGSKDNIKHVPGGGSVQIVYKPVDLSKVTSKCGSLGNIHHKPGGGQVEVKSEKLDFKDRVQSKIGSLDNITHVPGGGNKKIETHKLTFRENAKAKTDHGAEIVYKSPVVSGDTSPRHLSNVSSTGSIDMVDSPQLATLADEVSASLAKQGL
T1 sequence (P10636 1-441 isoform P10636-8): as above
Sequence of dGA (SEQ ID NO: 5) (P10636 614-707): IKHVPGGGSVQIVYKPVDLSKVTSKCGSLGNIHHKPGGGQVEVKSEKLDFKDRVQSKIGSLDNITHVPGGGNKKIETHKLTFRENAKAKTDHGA

Molecule	Tau proteins/fragments with positive scAb reactivity ([1]; Table 17, 'C' group scAbs)	Shortest region bound on hT40 ([1]; Table 17, 'C' group scAbs)	Epitope [1, 7]	immunoreactivity to dGAE aggregation samples prepared in the presence of LMTM [2]	Epitope [1, 8]	ka [3] [M⁻¹ s⁻¹]	kd [3] [s⁻¹]	ka [4] [M⁻¹ s⁻¹]	kd [4] [s⁻¹]	Tau proteins/fragments with positive scAb reactivity ([1]; Table 16, NS, S and M clones)	ka [5] [M⁻¹ s⁻¹]	Kd ([5]; dissociation rate) [s⁻¹]	critical binding residues [6]
CB3: anti-tau core clone, Table 10; SEQ ID NO: 370 (protein, CB3 amino acid sequence) scFv: QVQLQESGPSLVKPSQTLSLTCTVSGFSLSSVAVNWVRQAPGKVPEWLGGIISNGGTGYNPALKSRLSITRDTSKSQVSLALTHVTTEDTAVYYCGRGVEWEGSMDYLGPGLLVTVSSEGKSSGSGSETKVDDQSVLTQPSSVSGFLGQRVTITCSGSSSNVGAGSYVGWYQQVPGSGLRILIYGATKRASGLPDRFSGSRSGNTATLTISSLQAEDEADYYCVSYQTDFTLVFGSGTRLTVLG	hT40, 297-390 (dGA)	360-390	360-390	increase in immunoreactivity	–	–	–	–	–	–	–	–	–
CE3: anti-tau core clone, Table 10; SEQ ID NO: 367 (protein, CE3 amino acid sequence) scFv: QVRLQESGPSLVKPSQTLSVTCTVSGFSLISNAVGWVRQAPGKVPESLAGCSSDGKCYYNSALKSRLDITRDTSKNQISLSLSSVTTDDAAVYYCTRGYYPVYGYDYLGTIDYWGPGLLVTVSSEGKSSGASGESKVDDQAVLTQPSSVSGSLGQRVSITCSGSSSNVGRNDVAWFQQLPGSGLRTIIYGTTSRPSGIPDRFSGSKSGVTATLTIDSLQAEDEADYFCASGDSSAINDIFGSGTRLTVLG	hT40, 266-359 (R1-3)	331-360	331-360	increase in immunoreactivity	331-360	103000	0.001718	174500	0.000662	–	–	–	–
NS2A1: anti-tau clone, Table 11; SEQ ID NO: 220 (protein, NS2A1 amino acid sequence) scFv: QVQLQESGPSLVKPSQTLSLTCTVSGFSLSTNSVGWVRQAPGKAPEWVAGIDTDGEEGFNPVLKSRLSITRDTSKSQVSLSLSNVTSEDTAVYYCGRSYRTDGLAYGYVQAIDYWGPGLLVTISSEGKSSGASGESKVDDQSVLTQPSSVSGSPGQTVSITCSGSYIGSSGVGWFQQLPGSGLRTIIVASDGRPSGVPDGFSMSKSGNTATLTISSLQAEDEADYFCGSSDRTQYTGLFGSGTRLTVLG	–	–	297-390	–	297-390	893700	0.002621	252100	0.0007393	hT40, 297-390 (dGA), 297-391 (dGAE)	188000	0.00102	–
CA9: anti-tau clone, Tables 2 and 10; SEQ ID NO: 371 (protein, CA9 amino acid sequence) scFv: QVQLQESGPSLVKPSQTLSLTCTVSGFSLTSNSVGWVRQAPGKAPEWVAGIDTDGEEGYNPALNSRLSITRDTSKSQVSLSLSSVTSEDTAVYYCGRSYRSDGLAYGYVQAIDYWGPGLLVTVSSEGKSSGASGESKVDDQAVLTQPASVSGSLGQRVSITCSGSFIGISSVGWFQQLPGSGLRTIIVASDGRPSGVPDRFSMSKSGNTATLTISSLQAEDEADYFCGSSDRTQYTGVFGSGTRLTVLG	hT40, 239-441, 348-441, 297-390 (dGA)	367-379	–	increase in immunoreactivity	–	–	–	–	–	–	–	–	370 (K), and/or 374 (H)
